Reference: the supplement of paper PMC11865577

Tests used:
Assay in all cases: pull-down binding Z-score (relative to library population); higher = stronger binding
[1] = tested on: TO-N3 (biotin conjugate); conditions: RNA library: Library-2
Summary of the method: (§1)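 Heat-folded RNA library (1 μg, Cy5 or Cy3 end label, phosphate/NaCl/KCl buffer) was captured for 60 min at 25 °C on streptavidin beads displaying 100 pmol of biotin-conjugated small molecule, then washed three times. The bound fraction, eluted in hot SDS, was hybridised to a DNA barcode microarray at 55.5 °C for 20 h. Z-scores for binding were taken against the library mean and standard deviation after beads-only subtraction and trimmed averaging of replicate barcoded probes.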

[2] = tested on: TO-3-N3-2 (biotin conjugate); conditions: RNA library: Library-2
Summary of the method: as §1

[3] = tested on: TO-N3-2 (biotin conjugate); conditions: RNA library: Library-2
Summary of the method: as §1

[4] = tested on: TO-3-N3 (biotin conjugate); conditions: RNA library: Library-2
Summary of the method: as §1

[5] = tested on: G-clamp-N3 (biotin conjugate); conditions: RNA library: Library-1 (pre-miRNA loops + repeats)
Summary of the method: as §1

## CAUCAUUUGCACUACUGAUACUUGGGGUCAGAUAAUUGUUUGUGGUG [hsa-mir-4447]
[1]
  pull-down binding Z-score: -0.914
[2]
  pull-down binding Z-score: -0.334
[3]
  pull-down binding Z-score: -0.616
[4]
  pull-down binding Z-score: -0.801
[5]
  pull-down binding Z-score: 0.115

## CUGGCAUUUACGAGUCAGAGUUCUUACAGAGCUGC [hsa-mir-6514]
[1]
  pull-down binding Z-score: 0.639
[2]
  pull-down binding Z-score: 0.16
[3]
  pull-down binding Z-score: 1.48
[4]
  pull-down binding Z-score: 0.163
[5]
  pull-down binding Z-score: -1.37

## AUGCCCCAGGUGACGUGCUGGGCU [hsa-mir-4526]
[1]
  pull-down binding Z-score: 0.495
[2]
  pull-down binding Z-score: 0.0558
[3]
  pull-down binding Z-score: 0.888
[4]
  pull-down binding Z-score: 0.205
[5]
  pull-down binding Z-score: -0.192

## AUCGGUCGAGAGCGUCCUGGCUGAU [hsa-mir-3178]
[1]
  pull-down binding Z-score: 0.526
[2]
  pull-down binding Z-score: -0.22
[3]
  pull-down binding Z-score: 1
[4]
  pull-down binding Z-score: 0.18
[5]
  pull-down binding Z-score: 0.173

## UUUACAUAUAAAUUUCUAUUUGU [hsa-mir-4503]
[1]
  pull-down binding Z-score: 0.596
[2]
  pull-down binding Z-score: 0.317
[3]
  pull-down binding Z-score: -0.557
[4]
  pull-down binding Z-score: 0.81
[5]
  pull-down binding Z-score: -1.51

## UGGUCAGGCGGCU [hsa-mir-3917]
[1]
  pull-down binding Z-score: 0.0412
[2]
  pull-down binding Z-score: -0.061
[3]
  pull-down binding Z-score: 0.442
[4]
  pull-down binding Z-score: -0.142
[5]
  pull-down binding Z-score: 0.0721

## UCAGGCUUUAAUGUUUGAAGUAAUGUCAGU [hsa-mir-6874]
[1]
  pull-down binding Z-score: 0.555
[2]
  pull-down binding Z-score: 0.146
[3]
  pull-down binding Z-score: 0.228
[4]
  pull-down binding Z-score: 0.511
[5]
  pull-down binding Z-score: 0.286

## UGUGGCCUGGGGGUUGAGGACCCCUGCUCUA [hsa-mir-645]
[1]
  pull-down binding Z-score: 1.74
[2]
  pull-down binding Z-score: 0.303
[3]
  pull-down binding Z-score: 2.75
[4]
  pull-down binding Z-score: 0.874
[5]
  pull-down binding Z-score: 1.32

## AACACCCAUCCCAGGAUUGCUGAUGGGUGUU [hsa-mir-5705]
[1]
  pull-down binding Z-score: -0.668
[2]
  pull-down binding Z-score: -0.428
[3]
  pull-down binding Z-score: -0.282
[4]
  pull-down binding Z-score: -0.618
[5]
  pull-down binding Z-score: -0.7

## CUUUUAUGUGCCUUGAUAUAAAAG [hsa-mir-3910-2]
[1]
  pull-down binding Z-score: -0.644
[2]
  pull-down binding Z-score: -0.297
[3]
  pull-down binding Z-score: -0.682
[4]
  pull-down binding Z-score: -0.556
[5]
  pull-down binding Z-score: -0.124

## GACUGCUCAAGGUCAAAGGGGUC [hsa-mir-3918]
[1]
  pull-down binding Z-score: 0.367
[2]
  pull-down binding Z-score: 0.119
[3]
  pull-down binding Z-score: 0.66
[4]
  pull-down binding Z-score: 0.174
[5]
  pull-down binding Z-score: 2.12

## AGCACUUUCUGUUUUGUGAAAGAAAAGAAAGUGCU [hsa-mir-516b-1]
[1]
  pull-down binding Z-score: -1.32
[2]
  pull-down binding Z-score: -0.64
[3]
  pull-down binding Z-score: -1.2
[4]
  pull-down binding Z-score: -0.893
[5]
  pull-down binding Z-score: -0.472

## GCUUAUACGUGCCCUUGCU [hsa-mir-8075]
[1]
  pull-down binding Z-score: 0.318
[2]
  pull-down binding Z-score: 0.345
[3]
  pull-down binding Z-score: 0.504
[4]
  pull-down binding Z-score: -0.186
[5]
  pull-down binding Z-score: -1.63

## ACUCCCAGAACUCAUUAAGUUGGUAGU [hsa-mir-1278]
[1]
  pull-down binding Z-score: -0.188
[2]
  pull-down binding Z-score: -0.184
[3]
  pull-down binding Z-score: -0.482
[4]
  pull-down binding Z-score: -0.0721
[5]
  pull-down binding Z-score: -0.174

## GACCGUUGGCAUCUUAAUUACCCUC [hsa-mir-532]
[1]
  pull-down binding Z-score: -0.233
[2]
  pull-down binding Z-score: -0.339
[3]
  pull-down binding Z-score: 0.318
[4]
  pull-down binding Z-score: -0.448
[5]
  pull-down binding Z-score: -0.675

## CCCAAGCAGGCUUUGUGUGAGCAGUGAGGCUAUUUAUUCACUUGGGUGCGAGCUCACACGAAGCCUGCUUGGG [hsa-mir-6839]
[1]
  pull-down binding Z-score: 0.551
[2]
  pull-down binding Z-score: 0.815
[3]
  pull-down binding Z-score: 0.665
[4]
  pull-down binding Z-score: 0.33
[5]
  pull-down binding Z-score: 1.44

## CUCUAGACUCUAUUAUAGUUUCCUGAG [hsa-mir-558]
[1]
  pull-down binding Z-score: -0.751
[2]
  pull-down binding Z-score: -0.582
[3]
  pull-down binding Z-score: -0.545
[4]
  pull-down binding Z-score: -0.335
[5]
  pull-down binding Z-score: -1.03

## GGAGACCCUAUACAUACCUGUUUCC [hsa-mir-5581]
[1]
  pull-down binding Z-score: -0.37
[2]
  pull-down binding Z-score: -0.187
[3]
  pull-down binding Z-score: -0.354
[4]
  pull-down binding Z-score: -0.408
[5]
  pull-down binding Z-score: -2.1

## CAAGGGCUCUACUGUCCUUUCAGGAGAGCCCUUG [hsa-mir-4776-2]
[1]
  pull-down binding Z-score: -0.597
[2]
  pull-down binding Z-score: -1.02
[3]
  pull-down binding Z-score: -1.37
[4]
  pull-down binding Z-score: -0.245
[5]
  pull-down binding Z-score: 1.19

## AAGUCCGGCUCCAGAACCUGGACACCGCUCAG [hsa-mir-4638]
[1]
  pull-down binding Z-score: 0.898
[2]
  pull-down binding Z-score: 0.379
[3]
  pull-down binding Z-score: 1.09
[4]
  pull-down binding Z-score: 0.52
[5]
  pull-down binding Z-score: -1.24

## CCCAAACUUGGAGCACUUGACCUUUGGC [hsa-mir-4687]
[1]
  pull-down binding Z-score: 0.815
[2]
  pull-down binding Z-score: 0.268
[3]
  pull-down binding Z-score: 0.804
[4]
  pull-down binding Z-score: 0.611
[5]
  pull-down binding Z-score: -1.02

## CUCAAUGUAGUCUUGUAAGGAACAGGUUGAAG [hsa-mir-595]
[1]
  pull-down binding Z-score: 0.268
[2]
  pull-down binding Z-score: 0.34
[3]
  pull-down binding Z-score: 0.908
[4]
  pull-down binding Z-score: -0.166
[5]
  pull-down binding Z-score: 0.711

## AGAAAGUGAAACACUAUUUUAGGUUUU [hsa-mir-4458]
[1]
  pull-down binding Z-score: -0.0974
[2]
  pull-down binding Z-score: -0.00981
[3]
  pull-down binding Z-score: -0.248
[4]
  pull-down binding Z-score: 0.0524
[5]
  pull-down binding Z-score: -0.486

## AUGUCUCAGGUCCCCAGCUGAGUCAA [hsa-mir-6513]
[1]
  pull-down binding Z-score: 0.609
[2]
  pull-down binding Z-score: 0.129
[3]
  pull-down binding Z-score: 0.47
[4]
  pull-down binding Z-score: 0.633
[5]
  pull-down binding Z-score: -1.3

## CUCUGGUCUAUAAUGGGUUAAAUAGUAGAG [hsa-mir-609]
[1]
  pull-down binding Z-score: -0.191
[2]
  pull-down binding Z-score: 0.234
[3]
  pull-down binding Z-score: 0.131
[4]
  pull-down binding Z-score: -0.334
[5]
  pull-down binding Z-score: 0.305

## AAAUGAGAGUUAGCCAGGAGCUUUGCAUACUCA [hsa-mir-6801]
[1]
  pull-down binding Z-score: -0.00733
[2]
  pull-down binding Z-score: -0.0024
[3]
  pull-down binding Z-score: 0.66
[4]
  pull-down binding Z-score: -0.384
[5]
  pull-down binding Z-score: -1.22

## GAGGGAUGAGUGCACUUCACCUGC [hsa-mir-4435-1_4435-2]
[1]
  pull-down binding Z-score: 0.375
[2]
  pull-down binding Z-score: 0.0965
[3]
  pull-down binding Z-score: 0.859
[4]
  pull-down binding Z-score: -0.191
[5]
  pull-down binding Z-score: 0.0709

## GUGUCUGGAGACGCCAGGCAGC [hsa-mir-4323]
[1]
  pull-down binding Z-score: 0.127
[2]
  pull-down binding Z-score: -0.352
[3]
  pull-down binding Z-score: 1.13
[4]
  pull-down binding Z-score: -0.154
[5]
  pull-down binding Z-score: -0.529

## UGGACCUCAGGGAAGAGGCUG [hsa-mir-4673]
[1]
  pull-down binding Z-score: -0.619
[2]
  pull-down binding Z-score: -0.191
[3]
  pull-down binding Z-score: -0.855
[4]
  pull-down binding Z-score: -0.608
[5]
  pull-down binding Z-score: 0.343

## UCUCAAAAUAAUUCUGCAGUGAGA [hsa-mir-4524b]
[1]
  pull-down binding Z-score: -1.13
[2]
  pull-down binding Z-score: 0.0866
[3]
  pull-down binding Z-score: -0.868
[4]
  pull-down binding Z-score: -0.872
[5]
  pull-down binding Z-score: 2.26

## GGCGUGGACAACUUGCU [hsa-mir-3943]
[1]
  pull-down binding Z-score: 0.131
[2]
  pull-down binding Z-score: -0.0337
[3]
  pull-down binding Z-score: 0.912
[4]
  pull-down binding Z-score: -0.271
[5]
  pull-down binding Z-score: 0.951

## CAGGUGCCUCAAAGGGCAUCCCACCUG [hsa-mir-3151]
[1]
  pull-down binding Z-score: -0.673
[2]
  pull-down binding Z-score: -0.452
[3]
  pull-down binding Z-score: 0.0349
[4]
  pull-down binding Z-score: -0.578
[5]
  pull-down binding Z-score: -0.124

## UAGGGCUGGAUGGUAGGGCCCA [hsa-mir-6890]
[1]
  pull-down binding Z-score: 0.642
[2]
  pull-down binding Z-score: 0.343
[3]
  pull-down binding Z-score: 1.13
[4]
  pull-down binding Z-score: 0.343
[5]
  pull-down binding Z-score: 2.15

## UGAGCAGGGUCCACACCAAGUCGUGUUCA [hsa-mir-27a]
[1]
  pull-down binding Z-score: 1.14
[2]
  pull-down binding Z-score: 0.465
[3]
  pull-down binding Z-score: 1.09
[4]
  pull-down binding Z-score: 0.869
[5]
  pull-down binding Z-score: -0.575

## UGGGUUGAACUGUGUGGACAAGCUCA [hsa-mir-181b-1]
[1]
  pull-down binding Z-score: 0.366
[2]
  pull-down binding Z-score: -0.042
[3]
  pull-down binding Z-score: 0.631
[4]
  pull-down binding Z-score: -0.111
[5]
  pull-down binding Z-score: -0.166

## GCUGCCAGGAAAUCCCUAUUUCAUAUAAGAGGGGGCUGGCUGGUUGC [hsa-mir-448]
[1]
  pull-down binding Z-score: 0.447
[2]
  pull-down binding Z-score: 0.236
[3]
  pull-down binding Z-score: 0.355
[4]
  pull-down binding Z-score: 0.185
[5]
  pull-down binding Z-score: 1.08

## UUUCAGAUAACUCGGGA [hsa-mir-4320]
[1]
  pull-down binding Z-score: 0.116
[2]
  pull-down binding Z-score: -0.229
[3]
  pull-down binding Z-score: 0.00433
[4]
  pull-down binding Z-score: 0.173
[5]
  pull-down binding Z-score: -0.732
